Target: T1, commercial wildtype SpA (Staphylococcus aureus protein A) (Staphylococcus aureus, UniProt A0A0H3K686 37-477)
T1 construct: Bought wildtype SpA; also called SpA-coated beads; antigen
Assay: Bio-Layer Interferometry (ForteBio Octet Red 96), 20 nM antigen

T1 sequence (A0A0H3K686 37-477 limits assumed): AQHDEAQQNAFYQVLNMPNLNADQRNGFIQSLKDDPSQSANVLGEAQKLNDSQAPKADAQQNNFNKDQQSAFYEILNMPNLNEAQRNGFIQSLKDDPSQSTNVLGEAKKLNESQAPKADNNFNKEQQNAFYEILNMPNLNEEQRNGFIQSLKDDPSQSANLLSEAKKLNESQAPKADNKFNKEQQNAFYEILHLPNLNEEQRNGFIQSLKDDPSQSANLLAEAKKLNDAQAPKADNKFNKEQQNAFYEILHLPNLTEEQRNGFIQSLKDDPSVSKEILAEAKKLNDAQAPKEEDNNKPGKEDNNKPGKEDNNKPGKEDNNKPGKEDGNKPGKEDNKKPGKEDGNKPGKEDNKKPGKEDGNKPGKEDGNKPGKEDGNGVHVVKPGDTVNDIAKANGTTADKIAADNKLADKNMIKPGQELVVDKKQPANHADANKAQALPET

B1: PA7.2-G3 Ab (antibody)
heavy: EVQLVESRGGLVQPGGSLRLSCAASGFTFSNYAMSWVRQAPGKGLEWVSTISGSDGGTYYADSVKGRFTISRDNSGNTVYLQMNSLREDDTAVYYCARVGLSAPVTFFDFWGQGTLVTVSSASTKGPSVFPLAPCSRSTSGGTAALGCLVKDYFPEPVTVSWNSGALTSGVHTFPAVLQSSGLYSLSSVVTVPSSSLGTQTYTCNVNHKPSNTKVDKRVELKTPLGDTTHTCPRCPEPKSCDTPPPCPRCPEPKSCDTPPPCPRCPEPKSCDTPPPCPRCPAPELLGGPSVFLFPPKPKDTLMISRTPEVTCVVVDVSHEDPEVQFKWYVDGVEVHNAKTKPREEQYNSTFRVVSVLTVLHQDWLNGKEYKCKVSNKALPAPIEKTISKTKGQPREPQVYTLPPSREEMTKNQVSLTCLVKGFYPSDIAVEWESSGQPENNYNTTPPMLDSDGSFFLYSKLTVDKSRWQQGNIFSCSVMHEALHNRFTQKSLSLSPGK
light: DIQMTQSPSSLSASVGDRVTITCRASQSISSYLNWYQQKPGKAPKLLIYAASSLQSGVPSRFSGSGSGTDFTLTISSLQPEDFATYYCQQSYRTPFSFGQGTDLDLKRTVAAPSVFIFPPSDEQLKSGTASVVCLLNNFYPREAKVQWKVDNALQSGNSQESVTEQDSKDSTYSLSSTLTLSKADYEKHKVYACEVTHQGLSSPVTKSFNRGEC
notes: Human IgG3; copies: 2 + 2
Kd: < 1 pM

Reference: patent US20150344548A1 (XBIOTECH, published 2015)
